Laboratory results reported in publication PMC10711550.
Each block holds one substance with its values, some of them ahead of it.

What was measured:
[1] = biological target: full-length human SOX2 (human) (UniProt P48431); assay: BLI; SOX2 (0.2 mg/ml) immobilised on an AR2G chip, quenched with 1 M ethanolamine; p300 fragments in PBS; global fit to a 1:1 binding model (BLItz Pro v.1.2.1.5)
p300 full length (human) = p300 full length (human) (UniProt Q09472); assay: EMSA; conditions: EMSA: 10 mM HEPES-NaOH pH 7.3, 50 mM KCl, 5 mM MgCl2, 0.5 mM DTT, 5% glycerol, 0.5 mg/ml BSA; 1 h incubation; 1 nM DNA (Fig 2B); 4% native PAGE, 0.5x TBE, 4 C
SOX2DBD (human) = SOX2DBD (human) (UniProt P48431); assay: EMSA; conditions: EMSA: 10 mM HEPES-NaOH pH 7.3, 50 mM KCl, 5 mM MgCl2, 0.5 mM DTT, 5% glycerol, 0.5 mg/ml BSA; 1 h incubation; 1 nM DNA (Fig 2B); 4% native PAGE, 0.5x TBE, 4 C
SOX2 mutant E78A (human) = SOX2 mutant E78A (human) (UniProt P48431)
SOX2 mutant E86A (human) = SOX2 mutant E86A (human) (UniProt P48431)
SOX2 mutant E86A (human), sequence (P48431 whole entry E86A): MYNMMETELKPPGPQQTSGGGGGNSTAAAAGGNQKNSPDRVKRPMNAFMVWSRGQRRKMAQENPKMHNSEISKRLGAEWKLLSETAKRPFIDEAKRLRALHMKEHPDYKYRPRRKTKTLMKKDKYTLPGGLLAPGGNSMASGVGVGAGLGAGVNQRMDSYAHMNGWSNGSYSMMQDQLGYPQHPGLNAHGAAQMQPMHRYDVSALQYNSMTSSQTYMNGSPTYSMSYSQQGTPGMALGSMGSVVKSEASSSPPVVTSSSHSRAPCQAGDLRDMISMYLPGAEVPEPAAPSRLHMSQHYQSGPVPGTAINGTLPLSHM

full-length human SOX2 (human), sequence (P48431 whole entry, the tested form may be a part): as the sequence (P48431 whole entry E86A) above, with A86E counted along it
SOX2DBD (human), sequence (P48431 39-127): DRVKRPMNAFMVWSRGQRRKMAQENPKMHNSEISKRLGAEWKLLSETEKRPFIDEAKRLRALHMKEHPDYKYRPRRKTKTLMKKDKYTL
SOX2 mutant E78A (human), sequence (P48431 whole entry E78A): as the sequence (P48431 whole entry E86A) above, with E78A, A86E counted along it
p300 full length (human), sequence (Q09472 whole entry): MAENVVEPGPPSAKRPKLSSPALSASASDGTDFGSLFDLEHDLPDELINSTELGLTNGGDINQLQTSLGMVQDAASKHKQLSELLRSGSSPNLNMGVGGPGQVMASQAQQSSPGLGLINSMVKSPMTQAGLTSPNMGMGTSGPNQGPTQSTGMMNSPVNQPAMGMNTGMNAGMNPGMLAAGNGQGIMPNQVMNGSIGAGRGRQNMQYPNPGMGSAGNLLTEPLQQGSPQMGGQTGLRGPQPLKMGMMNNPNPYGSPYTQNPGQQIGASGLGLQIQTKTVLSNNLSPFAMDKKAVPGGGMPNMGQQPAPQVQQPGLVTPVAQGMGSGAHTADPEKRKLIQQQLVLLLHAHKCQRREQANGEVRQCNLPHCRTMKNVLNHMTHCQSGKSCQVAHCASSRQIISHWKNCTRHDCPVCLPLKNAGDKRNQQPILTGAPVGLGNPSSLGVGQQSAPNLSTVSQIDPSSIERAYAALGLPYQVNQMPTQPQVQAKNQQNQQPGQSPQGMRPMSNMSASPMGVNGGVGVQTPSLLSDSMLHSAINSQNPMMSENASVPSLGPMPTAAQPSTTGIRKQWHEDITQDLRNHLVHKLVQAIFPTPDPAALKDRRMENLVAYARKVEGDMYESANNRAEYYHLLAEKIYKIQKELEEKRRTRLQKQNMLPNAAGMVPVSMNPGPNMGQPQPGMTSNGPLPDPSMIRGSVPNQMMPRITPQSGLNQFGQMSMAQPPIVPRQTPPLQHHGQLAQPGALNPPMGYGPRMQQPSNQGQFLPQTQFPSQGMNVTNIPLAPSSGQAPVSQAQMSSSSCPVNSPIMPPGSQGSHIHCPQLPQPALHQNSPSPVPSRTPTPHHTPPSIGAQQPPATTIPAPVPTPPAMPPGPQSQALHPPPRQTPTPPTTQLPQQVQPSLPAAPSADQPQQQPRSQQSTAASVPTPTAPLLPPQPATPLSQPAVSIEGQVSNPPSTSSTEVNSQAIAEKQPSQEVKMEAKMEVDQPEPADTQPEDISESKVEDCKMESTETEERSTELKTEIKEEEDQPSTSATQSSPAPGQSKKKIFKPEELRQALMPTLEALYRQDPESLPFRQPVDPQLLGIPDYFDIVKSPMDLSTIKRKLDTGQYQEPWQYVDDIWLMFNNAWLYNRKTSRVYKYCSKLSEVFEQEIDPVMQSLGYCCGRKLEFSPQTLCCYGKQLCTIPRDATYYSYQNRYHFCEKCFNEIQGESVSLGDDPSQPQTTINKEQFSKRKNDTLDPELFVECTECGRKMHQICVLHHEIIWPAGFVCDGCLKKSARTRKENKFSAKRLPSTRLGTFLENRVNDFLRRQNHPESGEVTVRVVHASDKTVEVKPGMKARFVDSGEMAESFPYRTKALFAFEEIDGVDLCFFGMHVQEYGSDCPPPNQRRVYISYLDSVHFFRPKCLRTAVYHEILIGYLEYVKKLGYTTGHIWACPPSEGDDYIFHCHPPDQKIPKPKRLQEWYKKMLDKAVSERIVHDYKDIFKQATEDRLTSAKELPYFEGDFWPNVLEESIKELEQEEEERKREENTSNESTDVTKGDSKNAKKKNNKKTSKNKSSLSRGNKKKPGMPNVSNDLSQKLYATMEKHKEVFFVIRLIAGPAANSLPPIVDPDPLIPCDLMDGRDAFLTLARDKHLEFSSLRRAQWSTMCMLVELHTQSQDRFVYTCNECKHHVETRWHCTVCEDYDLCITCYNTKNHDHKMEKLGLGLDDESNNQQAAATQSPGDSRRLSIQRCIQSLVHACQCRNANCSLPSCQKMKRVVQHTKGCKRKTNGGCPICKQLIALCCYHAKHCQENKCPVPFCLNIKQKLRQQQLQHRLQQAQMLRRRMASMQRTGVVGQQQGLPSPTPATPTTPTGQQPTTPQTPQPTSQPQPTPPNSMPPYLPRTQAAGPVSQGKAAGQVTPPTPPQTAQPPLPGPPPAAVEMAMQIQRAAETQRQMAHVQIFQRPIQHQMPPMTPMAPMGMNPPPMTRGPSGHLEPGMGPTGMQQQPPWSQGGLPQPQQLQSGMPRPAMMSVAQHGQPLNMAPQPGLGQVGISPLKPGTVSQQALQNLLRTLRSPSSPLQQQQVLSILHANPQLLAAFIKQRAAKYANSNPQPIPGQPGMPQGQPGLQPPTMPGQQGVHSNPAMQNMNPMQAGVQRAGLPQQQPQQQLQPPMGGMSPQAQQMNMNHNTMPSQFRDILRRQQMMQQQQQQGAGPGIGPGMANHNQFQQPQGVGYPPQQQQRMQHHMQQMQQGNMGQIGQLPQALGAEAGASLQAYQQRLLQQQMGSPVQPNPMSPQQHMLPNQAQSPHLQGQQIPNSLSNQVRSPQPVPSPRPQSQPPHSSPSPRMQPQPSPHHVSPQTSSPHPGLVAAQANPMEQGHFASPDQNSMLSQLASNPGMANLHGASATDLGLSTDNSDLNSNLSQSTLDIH

Kd [1]: 2.68 µM | koff [1]: 0.0469 s⁻¹ | kon [1]: 12300 M⁻¹ s⁻¹
Substance: p300 KIX domain (aa 566-646) (from UniProt Q09472 566-646) (domain or fragment)

Substance: GCGGTCCATTATTCCAATTGATTTCAATTCTATTGATAGTCAGATTGAGAGACTCAGGTGCCTCTTTTGAATATCTTCTTTTGTTGGGGCCGCACACCCTGAGAGGTGGTGGAAGTCTGAGTTAGACTTTAGCCTGATCTACATAGCAAGTTCCGGGACATGCAAGGACTAC (double strand) [SM]
binding (p300 full length (human)): no binding | binding signal (SOX2DBD (human)): 71 % bound

Substance: GTAGTCCTTGCATGTCCCGGAACTTGCTATGTAGATCAGGCTAAAGTCTAACTCAGACTTCCACCACCTCTCAGGGTGTGCGGCCCCAAGATAAGAAGATATTCAAAAGAGGCACCTGAGTCTCTCAATCTGACTATCAATAGAATTGAAATCAATTGGAATAATGGACCGC (double strand) [dSM]
binding (SOX2DBD (human)): no binding

luciferase activity of pGL3-SM in cells expressing the SOX2 mutant, relative to wild-type SOX2 (SOX2 mutant E78A (human)): 30% | luciferase activity of pGL3-SM in cells expressing the SOX2 mutant, relative to wild-type SOX2 (SOX2 mutant E86A (human)): 30%
Substance: full-length p300 (Protein One), Q09472 1-2414
